In patent US20140087995A1 (published 2014):
One block for each binder: values may come before it. Numbered stars: 1 amine (or outer) side, 2 acyl side, 3 side chain; on linkers, the order of the positions; unused ones are H or OH. Bridge positions count the residues as written; N and C are the ends. Side chains are listed from the residue outwards. Ends that are not written are not given here. * marks the point of attachment. C20 diacid = O=C(O)CCCCCCCCCCCCCCCCCCC(=O)*; γGlu = O=C(O)[C@H](CCC(=O)[*:2])N[*:1]; AEEA = NCCOCCOCC(=O)O

Key:
[1] = target: T1, human amylin 3(a) receptor (human calcitonin receptor co-expressed with RAMP-3) (human, UniProt P30988 25-474; O60896 24-148, limits assumed); assay: cell-based or functional assay
T1 sequence (looked up) 1: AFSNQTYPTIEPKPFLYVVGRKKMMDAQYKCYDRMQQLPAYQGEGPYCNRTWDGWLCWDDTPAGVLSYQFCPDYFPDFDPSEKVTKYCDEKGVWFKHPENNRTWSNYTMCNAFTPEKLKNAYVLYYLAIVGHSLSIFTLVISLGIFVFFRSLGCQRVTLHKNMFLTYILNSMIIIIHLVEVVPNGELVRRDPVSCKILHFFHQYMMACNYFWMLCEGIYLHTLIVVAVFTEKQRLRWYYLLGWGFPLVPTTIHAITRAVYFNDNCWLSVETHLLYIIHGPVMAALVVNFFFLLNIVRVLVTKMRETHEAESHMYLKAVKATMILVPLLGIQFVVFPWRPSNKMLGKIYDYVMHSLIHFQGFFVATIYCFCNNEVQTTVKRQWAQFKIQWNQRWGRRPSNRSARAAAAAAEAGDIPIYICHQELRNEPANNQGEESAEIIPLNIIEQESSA
T1 sequence (looked up) 2: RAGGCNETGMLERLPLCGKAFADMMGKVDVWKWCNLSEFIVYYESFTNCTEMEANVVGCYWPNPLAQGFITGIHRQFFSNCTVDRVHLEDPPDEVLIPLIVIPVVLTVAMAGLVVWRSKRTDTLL

[2] = target: T2, human calcitonin receptor (human, UniProt P30988 25-474); assay: SPA competition on BHK cell membranes, 125I-calcitonin as radioligand (Assay VII)
T2 construct: whole, on cells; Used as cell membranes; also called hCTR; hCT
T2 sequence (looked up): T1 sequence (looked up) 1
Protocol: Membranes were prepared in the following way; the cells were rinsed with PBS and incubated with Versene for approximately 5 min before harvesting. The cells were flushed with PBS and the cell-suspension was centrifuged for 5 min at 1000 rpm. Cells were homogenized (Ultrathurrax) in a buffer containing 20 mM Na-HEPES and 10 mM EDTA (pH 7.4) and centrifuged at 20.000 rpm for 15 min. The resulting pellet was resuspended, homogenized and centrifuged (20.000 rpm, 15 min) in a buffer containing 20 mM Na-HEPES and 0.1 mM EDTA (pH 7.4, buffer 2). The resulting pellet was resuspended in buffer 2 and protein concentration was measured (BCA protein Assay, Pierce). The homogenate was kept cold during the whole procedure. The membranes were kept at −80° C. until use. Assay was performed in a 384 well Optiplate (PerkinElmer) in a total volume of 40 ul. Membranes were mixed with SPA beads. Final concentration of membranes 35 ng/μL final and Final concentration of SPA beads was 0.05 mg/well. Test-compounds were dissolved in DMSO and further diluted in assay buffer (50 mM Hepes, pH 7.4, 1 mM CaCl2, 5 mM MgCl₂, 0.1% OA and 0.02% Tween20). […] The final mixture was incubated for 120 min with shaking at 400 rpm at 25° C. prior to centrifugation (1500 rpm, 10 min). Samples were analyzed on TopCounter™ (Packard). The […] was calculated using (one site binding competition analysis) GraphPad Prism5 as a measure of receptor affinity.

[3] = target: T2, human calcitonin receptor; assay: ratio of hCTR IC50 to hAmylin-R IC50 (reference: human amylin receptor)
Protocol: The resulting pellet was resuspended, homogenized and centrifuged (20.000 rpm, 15 min) in a buffer containing 20 mM Na-HEPES and 0.1 mM EDTA (pH 7.4, buffer 2). The resulting pellet was resuspended in buffer 2 and protein concentration was measured (BCA protein Assay, Pierce). The homogenate was kept cold during the whole procedure. The membranes were kept at −80° C. until use. The assay was performed in a 384 well Optiplate (PerkinElmer) in a total volume of 40 ul. Membranes were mixed with SPA beads. Final concentration of membranes 35 ng/μL final and SPA beads was 0.05 mg/well. Test-compounds were dissolved in DMSO and further diluted in assay buffer (50 mM Hepes, pH 7.4, 1 mM CaCl2, 5 mM MgCl₂, 0.1% OA and 0.02% Tween20). […] The final mixture was incubated with shaking at 400 rpm for 120 min at 25° C. prior to centrifugation (1500 rpm, 10 min). Samples were analyzed on TopCounter™ (Packard). The IC₅₀ was calculated using (one site binding competition analysis) GraphPad Prism5 as a measure of receptor affinity.
Membranes were prepared in the following way; the cells were rinsed with PBS and incubated with Versene for approximately 5 min before harvesting. The cells were flushed with PBS and the cell-suspension was centrifuged for 5 min at 1000 rpm. Cells were homogenized (Ultrathurrax) in a buffer containing 20 mM Na-HEPES and 10 mM EDTA (pH 7.4) and centrifuged at 20.000 rpm for 15 min. The resulting pellet was resuspended, homogenized and centrifuged (20.000 rpm, 15 min) in a buffer containing 20 mM Na-HEPES and 0.1 mM EDTA (pH 7.4, buffer 2). The resulting pellet was resuspended in buffer 2 and protein concentration was measured (BCA protein Assay, Pierce). The homogenate was kept cold during the whole procedure. The membranes were kept at −80° C. until use. Assay was performed in a 384 well Optiplate (PerkinElmer) in a total volume of 40 ul. Membranes were mixed with SPA beads.

B3: N^ε1-[2-[2-[2-[[(4S)-4-carboxy-4-(19-carboxynonadecanoylamino)butanoyl]amino]ethoxy]ethoxy]acetyl]-[Arg17,Pro21,Pro27,His34]-h-amylin (peptide)
peptide: K([AEEA-γGlu-C20 diacid])CNTATCATQRLANFLRHSSPNFGAIPSSTNVGHNTY-NH2
modifications: disulfide 2-7; N-terminus assumed
SMILES: CC[C@H](C)[C@H](NC(=O)[C@H](C)NC(=O)CNC(=O)[C@H](Cc1ccccc1)NC(=O)[C@H](CC(N)=O)NC(=O)[C@@H]1CCCN1C(=O)[C@H](CO)NC(=O)[C@H](CO)NC(=O)[C@H](Cc1c[nH]cn1)NC(=O)[C@H](CCCNC(=N)N)NC(=O)[C@H](CC(C)C)NC(=O)[C@H](Cc1ccccc1)NC(=O)[C@H](CC(N)=O)NC(=O)[C@H](C)NC(=O)[C@H](CC(C)C)NC(=O)[C@H](CCCNC(=N)N)NC(=O)[C@H](CCC(N)=O)NC(=O)[C@@H](NC(=O)[C@H](C)NC(=O)[C@@H]1CSSC[C@H](NC(=O)[C@@H](N)CCCCNC(=O)COCCOCCNC(=O)CC[C@H](NC(=O)CCCCCCCCCCCCCCCCCCC(=O)O)C(=O)O)C(=O)N[C@@H](CC(N)=O)C(=O)N[C@@H]([C@@H](C)O)C(=O)N[C@@H](C)C(=O)N[C@@H]([C@@H](C)O)C(=O)N1)[C@@H](C)O)C(=O)N1CCC[C@H]1C(=O)N[C@@H](CO)C(=O)N[C@@H](CO)C(=O)N[C@H](C(=O)N[C@@H](CC(N)=O)C(=O)N[C@H](C(=O)NCC(=O)N[C@@H](Cc1c[nH]cn1)C(=O)N[C@@H](CC(N)=O)C(=O)N[C@H](C(=O)N[C@@H](Cc1ccc(O)cc1)C(N)=O)[C@@H](C)O)C(C)C)[C@@H](C)O
notes: also called compound 76
- IC50 [2]: 17.2 nM
- Ratio hCT/hAmylin binding [3]: 80

B4: N^ε1-[2-[2-[2-(19-carboxynonadecanoylamino)ethoxy]ethoxy]acetyl]-[His14,Arg17,Pro21,Pro27]-h-amylin (peptide)
peptide: K([AEEA-C20 diacid])CNTATCATQRLAHFLRHSSPNFGAIPSSTNVGSNTY-NH2
modifications: disulfide 2-7; N-terminus assumed
SMILES: CC[C@H](C)[C@H](NC(=O)[C@H](C)NC(=O)CNC(=O)[C@H](Cc1ccccc1)NC(=O)[C@H](CC(N)=O)NC(=O)[C@@H]1CCCN1C(=O)[C@H](CO)NC(=O)[C@H](CO)NC(=O)[C@H](Cc1c[nH]cn1)NC(=O)[C@H](CCCNC(=N)N)NC(=O)[C@H](CC(C)C)NC(=O)[C@H](Cc1ccccc1)NC(=O)[C@H](Cc1c[nH]cn1)NC(=O)[C@H](C)NC(=O)[C@H](CC(C)C)NC(=O)[C@H](CCCNC(=N)N)NC(=O)[C@H](CCC(N)=O)NC(=O)[C@@H](NC(=O)[C@H](C)NC(=O)[C@@H]1CSSC[C@H](NC(=O)[C@@H](N)CCCCNC(=O)COCCOCCNC(=O)CCCCCCCCCCCCCCCCCCC(=O)O)C(=O)N[C@@H](CC(N)=O)C(=O)N[C@@H]([C@@H](C)O)C(=O)N[C@@H](C)C(=O)N[C@@H]([C@@H](C)O)C(=O)N1)[C@@H](C)O)C(=O)N1CCC[C@H]1C(=O)N[C@@H](CO)C(=O)N[C@@H](CO)C(=O)N[C@H](C(=O)N[C@@H](CC(N)=O)C(=O)N[C@H](C(=O)NCC(=O)N[C@@H](CO)C(=O)N[C@@H](CC(N)=O)C(=O)N[C@H](C(=O)N[C@@H](Cc1ccc(O)cc1)C(N)=O)[C@@H](C)O)C(C)C)[C@@H](C)O
notes: also called compound 90
- IC50 [2]: 2.57 nM
- Ratio hCT/hAmylin binding [3]: 42.2

Other lines, results leading:

- Ratio hCT/hAmylin funct. (hCTR EC50 over hAmylin-R EC50) [1]: 17
- hAmylin-R funct. EC50 (pM) [1]: 594 pM
B1: N^ε-[2-[2-[2-[[(4S)-4-carboxy-4-(19-carboxynonadecanoylamino)butanoyl]amino]ethoxy]ethoxy]acetyl]Lys[Arg1,Arg17,Pro21,Pro27,His35]-h-amylin (peptide)
peptide: K([AEEA-γGlu-C20 diacid])RCNTATCATQRLANFLRHSSPNFGAIPSSTNVGSHTY-NH2
modifications: disulfide 3-8; N-terminus assumed
SMILES: CC[C@H](C)[C@H](NC(=O)[C@H](C)NC(=O)CNC(=O)[C@H](Cc1ccccc1)NC(=O)[C@H](CC(N)=O)NC(=O)[C@@H]1CCCN1C(=O)[C@H](CO)NC(=O)[C@H](CO)NC(=O)[C@H](Cc1c[nH]cn1)NC(=O)[C@H](CCCNC(=N)N)NC(=O)[C@H](CC(C)C)NC(=O)[C@H](Cc1ccccc1)NC(=O)[C@H](CC(N)=O)NC(=O)[C@H](C)NC(=O)[C@H](CC(C)C)NC(=O)[C@H](CCCNC(=N)N)NC(=O)[C@H](CCC(N)=O)NC(=O)[C@@H](NC(=O)[C@H](C)NC(=O)[C@@H]1CSSC[C@H](NC(=O)[C@H](CCCNC(=N)N)NC(=O)[C@@H](N)CCCCNC(=O)COCCOCCNC(=O)CC[C@H](NC(=O)CCCCCCCCCCCCCCCCCCC(=O)O)C(=O)O)C(=O)N[C@@H](CC(N)=O)C(=O)N[C@@H]([C@@H](C)O)C(=O)N[C@@H](C)C(=O)N[C@@H]([C@@H](C)O)C(=O)N1)[C@@H](C)O)C(=O)N1CCC[C@H]1C(=O)N[C@@H](CO)C(=O)N[C@@H](CO)C(=O)N[C@H](C(=O)N[C@@H](CC(N)=O)C(=O)N[C@H](C(=O)NCC(=O)N[C@@H](CO)C(=O)N[C@@H](Cc1c[nH]cn1)C(=O)N[C@H](C(=O)N[C@@H](Cc1ccc(O)cc1)C(N)=O)[C@@H](C)O)C(C)C)[C@@H](C)O
notes: 38 residues; also called compound 45

- Ratio hCT/hAmylin funct. (hCTR EC50 over hAmylin-R EC50) [1]: 17
- hAmylin-R funct. EC50 (pM) [1]: 116 pM
B2: N^ε1-[(4S)-4-carboxy-4-(19-carboxynonadecanoylamino)butanoyl]-[Arg17,Pro21,Pro27]-h-amylin (peptide)
peptide: K([γGlu-C20 diacid])CNTATCATQRLANFLRHSSPNFGAIPSSTNVGSNTY-NH2
modifications: disulfide 2-7; N-terminus assumed
SMILES: CC[C@H](C)[C@H](NC(=O)[C@H](C)NC(=O)CNC(=O)[C@H](Cc1ccccc1)NC(=O)[C@H](CC(N)=O)NC(=O)[C@@H]1CCCN1C(=O)[C@H](CO)NC(=O)[C@H](CO)NC(=O)[C@H](Cc1c[nH]cn1)NC(=O)[C@H](CCCNC(=N)N)NC(=O)[C@H](CC(C)C)NC(=O)[C@H](Cc1ccccc1)NC(=O)[C@H](CC(N)=O)NC(=O)[C@H](C)NC(=O)[C@H](CC(C)C)NC(=O)[C@H](CCCNC(=N)N)NC(=O)[C@H](CCC(N)=O)NC(=O)[C@@H](NC(=O)[C@H](C)NC(=O)[C@@H]1CSSC[C@H](NC(=O)[C@@H](N)CCCCNC(=O)CC[C@H](NC(=O)CCCCCCCCCCCCCCCCCCC(=O)O)C(=O)O)C(=O)N[C@@H](CC(N)=O)C(=O)N[C@@H]([C@@H](C)O)C(=O)N[C@@H](C)C(=O)N[C@@H]([C@@H](C)O)C(=O)N1)[C@@H](C)O)C(=O)N1CCC[C@H]1C(=O)N[C@@H](CO)C(=O)N[C@@H](CO)C(=O)N[C@H](C(=O)N[C@@H](CC(N)=O)C(=O)N[C@H](C(=O)NCC(=O)N[C@@H](CO)C(=O)N[C@@H](CC(N)=O)C(=O)N[C@H](C(=O)N[C@@H](Cc1ccc(O)cc1)C(N)=O)[C@@H](C)O)C(C)C)[C@@H](C)O
notes: also called compound 48
